Measurements as given in the supplement of paper PMC9170038.

System: MS2 coat protein
Assay: apparent KD of MS2 coat protein; designed switch direction (-1 OFF switch, 1 ON switch): -1; higher = weaker reporter binding
Method in brief: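 On Illumina chips, designed RNA switches with common flanks were made by stalled E. coli RNA polymerase. Titrations with SNAP-549-labelled MS2 coat protein, doubling from 0.7 or 1.5 nM to 3 µM, were done with no input, with 200 uM small-molecule ligand, or with an oligonucleotide input. Apparent KD is the median per design over clusters, from curve fits of normalised cluster fluorescence.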

[1] = input ligand: microRNA oligo, concentration not stated
[2] = Eterna round: R95, input ligand: FMN 200 uM
[3] = Eterna round: R95, input ligand: microRNA oligo, concentration not stated
[4] = Eterna round: R95, input ligand: none

| Sequence | apparent KD of MS2 coat protein (input ligand: FMN 200 uM) [nM] | apparent KD of MS2 coat protein [1] [nM] | apparent KD of MS2 coat protein (input ligand: none) [nM] | apparent KD of MS2 coat protein [2] [nM] | apparent KD of MS2 coat protein [3] [nM] | apparent KD of MS2 coat protein [4] [nM] |
| --- | --- | --- | --- | --- | --- | --- |
| ACAUGAGGAUCACCCAUGUGAAAACAAUGGCUGACUUAGAGAUAGGAUAUAUGUGCAUAUCAAACAUAGAAGGGUCAUUACUGG [Deportation 89 - Jieux - Exclusion NG 3] (Eterna round: R96, puzzle: Exclusion NG 3) | 37.9 | 34.5 | 39.3 | – | – | – |
| UCGUGUGCGUAGGAUAUCGGUAUGAAGGGAGAAUGAGAAGGGCGGACAUGAGGAUCACCCAUGUGUGCCGGAAA [EX6 B.4] (Eterna round: R97, puzzle: Exclusion 6) | 43.3 | – | 18 | – | – | – |
| AAUAAAGGAGGAUAUACAUGAGGAUCACCCAUGUGAAUAAAAUAAAUAAAAUGAUAAAGUAGAAGGCCUAAUAA [JMF's solution 3] (puzzle: Exclusion 3) | – | – | – | 33.5 | 33.3 | 49.7 |
| AUGUUACUCUGAGGAUAUUGUUUAUUCUUCUCACAUGAGGAUCACCCAUGUUUCCAUGUUAACCGCAAGAAGGCAGUUUUGUUU [JR_ExcNG2_Sub029] (Eterna round: R96, puzzle: Exclusion NG 2) | 46.1 | 24.5 | 36.3 | – | – | – |
| ACUUAUAGAGGAUAUACAGAAUAUUACAUGAGGAUCACCCAUGUUCUUCAAUGUAUAUAUGUAGAAGGCUAAGGAA [JL-ex5-4.22 Malcolm mod] (Eterna round: R97, puzzle: Exclusion 5) | 252 | – | 88.8 | – | – | – |
| GGGAAAGAGGUAAGGAUAUCCUCCUCGAAAGAGGAGGAGAAGGUACAUGAGGAUCACCCAUGUAAGAAGAAGAG [AK-MS2ROC-r4-Bmoexclusion4-13] (Eterna round: R97, puzzle: Brourd's mod of Exclusion 4) | 25 | – | 18.6 | – | – | – |
| UCAGGUCGGUAGGAUAUCGACGGGAAAAGCCCACGAGAAGGACUGACAUGAGGAUCACCCAUGUGAGCGUAACC [EX6 B.1] (Eterna round: R97, puzzle: Exclusion 6) | 37.9 | – | 101 | – | – | – |
| UCUGGUCGAGGAUAUACAUGAGGAUCACCCAUGUGGUUACGUGACGAUAGUCACGAAUGUAGAAGGCGACCAGA [E3/4-A2] (Eterna round: R97, puzzle: Exclusion 3) | 326 | – | 230 | – | – | – |
| GCCUUGGGAGUCAGGAUAUACAAUAAAAUAAUUAAGUAGAAGGGACAUGAGGAUCACCCAUGUACAUUACAUCG [alecazam31] (Eterna round: R97, puzzle: Brourd's mod of Exclusion 4) | 39.5 | – | 25.7 | – | – | – |
| AGUUGGCGAGGAUAUACAUGAGGAUCACCCAUGUGAGAGAAAAAAGUGAGGAAGAAAAGUAGAAGGCGCUGACC [salish99_ex3_r3_041] (puzzle: Exclusion 3) | – | – | – | 245 | 49.8 | 81.8 |
| UUGUUGUAUGUAGGAUAUGCAUAUUAUUGUUAUGCAGAAGGACAUGAGGAUCACCCAUGUAUAUUAUUAUUAUAUGUUAUAUAU [Title] (Eterna round: R96, puzzle: Exclusion NG 1) | 35.1 | 21 | 28 | – | – | – |
| UUUACAAGCUAUUGAUCCCACAUGAGGAUCACCCAUGUUGCUGCCGGUGACGGUAGCAUAACAAUUGCUCGUCUUAU [JL TOV1 3.56] (Eterna round: R97, puzzle: Sensor, turn-off variant 1) | 660 | – | 797 | – | – | – |
| AGAAAGGAAGGAUAUACAAGAAAGCCGGGCAACGUCUCAGAACAUGAGGAUCACCCAUGUAGAAGGUCCAGGAA [Tisoiste] (puzzle: Exclusion 2) | – | – | – | 92.3 | 32.6 | 32.8 |
| UCCAGUAUAUGGAGAUUUUACAUGAGGAUCACCCAUGUUGGGACAGCUUUUUGCUUGUCUUAUCCUACUUCGUGUGU [Design #4] (Eterna round: R97, puzzle: Sensor, turn-off variant 1) | 51 | – | 56.3 | – | – | – |
| UUUAUGUCAGGAUAUGAGUAGUAGAACAAUAGUACUACUACUCAGAAGGGACAUGAGGAUCACCCAUGUGCCUC [Fiskers Ex 4 Super stable 44 mod 22] (Eterna round: R96, puzzle: Exclusion 4) | 326 | 32.3 | 40.4 | – | – | – |
| UGGCUUUGAGGAUAUACAUUGAAUAAGAUUCAUGUAAAACUACAUGAGGAUCACCCAUGUAGAAGGCAAGGCCU [Mat - Exclusion 2 - JL Mod - D74] (Eterna round: R97, puzzle: Exclusion 2) | 26.9 | – | 16 | – | – | – |
| CCGAAUAUGCAGGAUAUCGUAUCGGAGACGAUACGAGAAGGGCAAACAUGAGGAUCACCCAUGUUCCUUAACGG [Mat - Exclusion 6 - Eli Mod - D75] (puzzle: Exclusion 6) | – | – | – | – | 15.9 | – |
| GUGCCGCGAGGAUAUACAGACGGGUCCAUUACGUGUCUCGGACUUGAGGAUCACCCAAGUAGAAGGCGUCUCAG [salish99_ex2_r4_625] (Eterna round: R97, puzzle: Exclusion 2) | 51.3 | – | 40.2 | – | – | – |
| GCCUUAUCGGUCAGGAUAUACACCCGUCACUUGUUGUAGAAGGGACAUGAGGAUCACCCAUGUACAUUACAUUG [alecazam37] (Eterna round: R97, puzzle: Brourd's mod of Exclusion 4) | 31.3 | – | 26 | – | – | – |
| CUCAUGUGAGGAUAUCACCCAAGAGUGAGCAAUCACUAUCAUGAGAAGGCACAUGAGGAUCACCCAUGUUAAAA [Xesoer] (Eterna round: R97, puzzle: Exclusion 4) | 11.5 | – | 57.7 | – | – | – |
| CUAGAUCUUCGGAUCUAGUACAUGAGGAUCACCCAUGUUACGAGUUGAUCCUCAUACAAGCUUUUUGCUCGUCUUAU [Sensor v3 - Turn-off variant 1 - 25] (puzzle: Sensor v3, turn-off variant 1) | – | – | – | 16.5 | 9.03 | 13.9 |
| CCGCUACAUGAGGAUCACCCAUGUCAGGAUAUCGUACGUUCGUCGAUAGACGAUCGUACGAGAAGGGUGUGCGG [Mat - Exclusion 1 - Eli Mod - D36] (Eterna round: R97, puzzle: Exclusion 1) | 81.4 | – | 139 | – | – | – |
| UUGCUCCCUUAGUACUCUACAAGUUUUUUGUUCGUUUUAACAUGAGGAUCACCCAUGUCUAGUGGAUCUGAUCGGGU [JL ViennaUCT Isreen mod 5] (puzzle: Sensor v3, turn-off variant 2) | – | – | – | 172 | 336 | 178 |
| UCUCCACAUGAGGAUCACCCAUGUCAGGAUAUGCUGCGGCUACUAAAAGAGAAUUGCGGCAGAAGGGACACGCC [EX1 B.25] (Eterna round: R97, puzzle: Exclusion 1) | 68 | – | 20.2 | – | – | – |
| CUGAUGUGAGGAUAUCGGGCUACGGCCAGGCCGCUAGCAUUCGAGAAGGCACAUGAGGAUCACCCAUGUGAGAA [Laquzara] (Eterna round: R96, puzzle: Exclusion 4) | 230 | 112 | 153 | – | – | – |
